The target of assay [1] is Active phosphorylated His6-tagged ERK2 E320K (rat (p-0033 says mouse)) (UniProt P63086).
In assay [2] the target is Active phosphorylated His6-tagged ERK2 R133K (rat (p-0033 says mouse)) (UniProt P63086).
Assay [3] deals with Active phosphorylated His6-tagged ERK2 D319N (rat (p-0033 says mouse)) (UniProt P63086).
In assay [4] the target is Active phosphorylated His6-tagged ERK2 WT (rat (p-0033 says mouse)) (UniProt P63086).
Assay [5] has the same target. This is another data set of the same source.
Assay [6] has as its target Active phosphorylated His6-tagged ERK2 E320K (rat (p-0033 says mouse)) (UniProt P63086). The source holds these as a separate data set.
The target of assay [7] is Active phosphorylated His6-tagged ERK2 R133K (rat (p-0033 says mouse)) (UniProt P63086). This is another data set of the same source.
For assay [8], the target named is Active phosphorylated His6-tagged ERK2 D319N (rat (p-0033 says mouse)) (UniProt P63086). The source holds these as a separate data set.
Assay [9] has as its target Active phosphorylated His6-tagged ERK2 R133K (rat (p-0033 says mouse)) (UniProt P63086). This is another data set of the same source.
Assay [10] has as its target Active phosphorylated His6-tagged ERK2 WT (rat (p-0033 says mouse)) (UniProt P63086). This is another data set of the same source.
The target in assay [11] is Active phosphorylated His6-tagged ERK2 D319N (rat (p-0033 says mouse)) (UniProt P63086). The source holds these as a separate data set.
In assay [12] the target is Active phosphorylated His6-tagged ERK2 WT (rat (p-0033 says mouse)) (UniProt P63086). The source holds these as a separate data set.
Assay [13] concerns the target Active phosphorylated His6-tagged ERK2 E320K (rat (p-0033 says mouse)) (UniProt P63086). This is another data set of the same source.
Assay [14] has as its target Active phosphorylated His6-tagged ERK2 R133K (rat (p-0033 says mouse)) (UniProt P63086). The source holds these as a separate data set.
The target in assay [15] is Active phosphorylated His6-tagged ERK2 E320K (rat (p-0033 says mouse)) (UniProt P63086). This is another data set of the same source.
In assay [16] the target is Active phosphorylated His6-tagged ERK2 D319N (rat (p-0033 says mouse)) (UniProt P63086). This is another data set of the same source.
In assay [17] the target is Active phosphorylated His6-tagged ERK2 R133K (rat (p-0033 says mouse)) (UniProt P63086). The source holds these as a separate data set.
For assay [18], the target named is Active phosphorylated His6-tagged ERK2 WT (rat (p-0033 says mouse)) (UniProt P63086). The source holds these as a separate data set.
Assay [19] has as its target Active phosphorylated His6-tagged ERK2 D319N (rat (p-0033 says mouse)) (UniProt P63086). The source holds these as a separate data set.
The target of assay [20] is Active phosphorylated His6-tagged ERK2 R133K (rat (p-0033 says mouse)) (UniProt P63086). The source holds these as a separate data set.
Assay [21] concerns the target Active phosphorylated His6-tagged ERK2 E320K (rat (p-0033 says mouse)) (UniProt P63086). This is another data set of the same source.
The target of assay [22] is Active phosphorylated His6-tagged ERK2 WT (rat (p-0033 says mouse)) (UniProt P63086). This is another data set of the same source.
The target in assay [23] is Active phosphorylated His6-tagged ERK2 R133K (rat (p-0033 says mouse)) (UniProt P63086). The source holds these as a separate data set.
Assay [24] deals with Active phosphorylated His6-tagged ERK2 E320K (rat (p-0033 says mouse)) (UniProt P63086). The source holds these as a separate data set.
For assay [25], the target named is Active phosphorylated His6-tagged ERK2 WT (rat (p-0033 says mouse)) (UniProt P63086). The source holds these as a separate data set.
The target in assay [26] is Active phosphorylated His6-tagged ERK2 D319N (rat (p-0033 says mouse)) (UniProt P63086). This is another data set of the same source.

Data on seven substances can be found in paper PMC11982978, “Cancer hotspot mutations rewire ERK2 specificity by selective exclusion of docking interactions” (The Journal of Biological Chemistry, 2025).

Read-outs that look alike come from different tables or passages of the source.

For ZBED6, the IC50 in assay [1] was 56 µM; in [2], 6.2 µM; in assay [3], 23 µM; in [4], 6.8 µM.

MLXIPL: the IC50 in assay [5] came to 18 µM; in assay [6], 28 µM; in assay [7], 23 µM; in assay [8], 26 µM.

With ANAPC5, the half-inhibitory concentration (IC50) amounted to 340 µM in assay [9] and 32 µM in assay [10].

As to ELMSAN1, the IC50 in assay [11] was found to be 30 µM; in assay [12], 24 µM; in assay [13], 40 µM; in assay [14], 27 µM.

In the case of AEBP1, the IC50 in assay [15] was 160 µM; in assay [16], 120 µM; in [17] it was 110 µM; in assay [18], 16 µM.

In the case of DISC1, the IC50 came to 79 µM in [19], 74 µM in [20], 110 µM in assay [21] and 23 µM in assay [22].

Take CBX7: the IC50 in assay [23] was found to be 5.7 µM; in assay [24], 14 µM; in assay [25], 5.1 µM; in [26] it was 9.8 µM.

As a reminder, the IC50 is the concentration needed to halve the response being measured. Read a high IC50 as lower potency.
